The values that follow come from paper PMC4699798 (Cell, 2015).

The target of this experiment is Slit-N fused to alkaline phosphatase (Drosophila). Briefly: alkaline phosphatase fusion binding assay on beads.

B1: Dscam1 EC4 fused to Fc (Fc fusion)
chain: ANPPDADQKGPVFLKEPTNRIDFSNSTGAEIECKASGNPMPEIIWIRSDGTAVGDVPGLRQISSDGKLVFPPFRAEDYRQEVHAQVYACLARNQFGSIISRDVHVRAVVAQYYEADVNKEHVIRGNSAVIKCLIPSFVADFVEVVSWHTDEEENYFPGAEYDGKYLVLPSGELHIREVGPEDGYKSYQCRTKHRLTGETRLSATKGRLVITEPVSSSPPKINALTYKPNIVESMASTAILCPAQGYPAPSFRWYKFIEGTTRKQAVVLNDRVKQVSGTLIIKDAVVEDSGKYLCVVNNSVGGESVETVLTVTAPLSAKIDPPTQTVDFGRPAVFTCQYTGNPIKTVSWMKDGKAIGHSEPVLRIESVKKEDKGMYQCFVRNDQESAEASAELK
On to B1, for which the Kd was determined as 22.2 ± 2.85 nM.
